The source of these data is patent publication US20050282743A1, “Molecular interactions in cells” (Arbor Vita Corporation, priority 2001, published 2005).

What all share (assay): G' assay
Assay [1] addresses T1, GST-FLJ 10324 PDZ domain 1 [GST: P08515].
T1 chain: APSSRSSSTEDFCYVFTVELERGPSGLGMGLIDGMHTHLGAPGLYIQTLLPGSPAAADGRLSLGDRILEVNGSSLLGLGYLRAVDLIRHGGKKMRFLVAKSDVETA

Assay [2] concerns the target GST-DLG1 PDZ domains 1, 2 (Homo sapiens), Q12959.
Assay [3] deals with T2, GST-NeDLG PDZ domains 1, 2, Q92796.
T2 chain: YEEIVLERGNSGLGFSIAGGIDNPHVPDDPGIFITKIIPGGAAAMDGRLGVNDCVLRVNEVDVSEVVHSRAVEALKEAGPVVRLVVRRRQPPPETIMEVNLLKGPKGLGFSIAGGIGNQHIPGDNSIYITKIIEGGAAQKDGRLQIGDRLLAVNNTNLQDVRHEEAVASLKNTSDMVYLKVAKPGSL

For assay [4], the target named is GST-PSD95 PDZ domains 1, 2, 3 (Homo sapiens), P78352.
Assay [5] has as its target T3, GST-PTPL1 PDZ domain 2 (Homo sapiens (Human)), Q12923.
T3 chain: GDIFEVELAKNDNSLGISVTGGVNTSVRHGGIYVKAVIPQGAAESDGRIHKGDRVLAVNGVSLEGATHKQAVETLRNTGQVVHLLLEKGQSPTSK

Assay [6] has as its target GST-BAI-1 Associated Protein PDZ domain 3 (Homo sapiens (Human)), Q96QZ7.
Assay [7] addresses T4, GST-KIAA1634 PDZ domain 2 (Homo sapiens (Human)), Q5TCQ9.
T4 chain: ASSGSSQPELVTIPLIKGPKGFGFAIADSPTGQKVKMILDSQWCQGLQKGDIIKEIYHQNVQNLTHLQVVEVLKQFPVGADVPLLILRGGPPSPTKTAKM

The target in assay [8] is T5, GST-MINT1 PDZ domains 1, 2, Q02410.
T5 chain: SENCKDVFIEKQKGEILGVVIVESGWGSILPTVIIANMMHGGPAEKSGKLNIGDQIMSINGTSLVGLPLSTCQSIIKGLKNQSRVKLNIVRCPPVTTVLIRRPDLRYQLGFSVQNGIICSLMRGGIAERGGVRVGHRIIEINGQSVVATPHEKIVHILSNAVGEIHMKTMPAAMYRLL

The target in assay [9] is GST-BAI-1 Associated Protein PDZ domain 5 (Homo sapiens (Human)), Q96QZ7.
Assay [10] deals with T6, GST-KIAA0807(S) PDZ domain 1 (Homo sapiens (Human)), Q6P0Q8.
T6 chain: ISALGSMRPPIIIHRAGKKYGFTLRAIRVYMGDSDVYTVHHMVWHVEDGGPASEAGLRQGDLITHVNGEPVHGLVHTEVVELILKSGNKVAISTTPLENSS

For assay [11], the target named is GST-KIAA807 [GST: P08515].
The target of assay [12] is T7, GST-MINT1 PDZ domain 2 (Mus musculus (Mouse)), B2RUJ5.
T7 chain: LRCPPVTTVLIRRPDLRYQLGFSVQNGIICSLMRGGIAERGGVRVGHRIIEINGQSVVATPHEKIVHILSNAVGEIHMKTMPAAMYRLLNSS

Assay [13] addresses T8, GST-KIAA0973 PDZ domain 1 (Homo sapiens (Human)), Q9Y2H9.
T8 chain: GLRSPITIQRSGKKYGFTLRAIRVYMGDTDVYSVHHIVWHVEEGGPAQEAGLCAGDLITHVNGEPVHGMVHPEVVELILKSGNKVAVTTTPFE

For assay [14], the target named is GST-BAI-1 Associated Protein PDZ domain 6 (Homo sapiens (Human)), Q96QZ7.
For assay [15], the target named is GST-BAI-1 Associated Protein PDZ domain 2 (Mus musculus (Mouse)), Q6RHR9.
Assay [16] concerns the target T9, GST-INADL PDZ domain 8 (Homo sapiens (Human)), Q8NI35.
T9 chain: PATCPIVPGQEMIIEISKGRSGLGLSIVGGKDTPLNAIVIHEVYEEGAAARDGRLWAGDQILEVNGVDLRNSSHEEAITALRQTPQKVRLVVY

In assay [17] the target is GST-KIAA1634 PDZ domain 1 (Homo sapiens (Human)), Q5TCQ9.
For assay [18], the target named is T10, GST-TIP1 PDZ domain 1 (Table 9 insert) (Homo sapiens (Human)), O14907.
T10 chain: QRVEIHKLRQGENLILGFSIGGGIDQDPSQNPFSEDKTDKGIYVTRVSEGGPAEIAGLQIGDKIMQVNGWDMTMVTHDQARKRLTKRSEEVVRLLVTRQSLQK

In assay [19] the target is T11, GST-KIAA0380 PDZ domain 1 (Homo sapiens (Human)), O15085.
T11 chain: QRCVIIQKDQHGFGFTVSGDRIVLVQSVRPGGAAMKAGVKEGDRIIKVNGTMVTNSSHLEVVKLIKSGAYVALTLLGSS

Assay [20] deals with T12, GST-FLJ00011 PDZ domain 1 (Homo sapiens (Human)), Q9H5P4.
T12 chain: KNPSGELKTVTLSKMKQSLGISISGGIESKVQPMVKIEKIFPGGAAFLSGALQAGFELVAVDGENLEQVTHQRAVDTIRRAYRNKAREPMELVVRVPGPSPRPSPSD

Assay [21] concerns the target T13, GST-Outer Membrane PDZ domain 1 (Homo sapiens (Human)), P57105.
T13 chain: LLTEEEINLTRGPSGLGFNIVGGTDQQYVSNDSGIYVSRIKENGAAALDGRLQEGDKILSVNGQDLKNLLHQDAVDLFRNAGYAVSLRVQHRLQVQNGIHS

Assay [22] has as its target T14, GST-KIAA0382 PDZ domain 1 (Canis lupus familiaris (Dog) (Canis familiaris)), A0A8I3.
T14 chain: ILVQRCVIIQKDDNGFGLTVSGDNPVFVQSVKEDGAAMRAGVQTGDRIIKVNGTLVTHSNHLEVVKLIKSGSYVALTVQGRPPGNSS

The target in assay [23] is T15, GST-MUPP1 PDZ domain 10 (Homo sapiens (Human)), O75970.
T15 chain: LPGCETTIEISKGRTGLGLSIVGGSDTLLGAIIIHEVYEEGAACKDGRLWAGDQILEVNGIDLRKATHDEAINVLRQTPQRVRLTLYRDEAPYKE

Assay [24] addresses GST-KIAA0147 PDZ domain 1 (Homo sapiens (Human)), Q14160.
In assay [25] the target is T16, GST-AIPC PDZ domain 1 (Homo sapiens (Human)), O15018.
T16 chain: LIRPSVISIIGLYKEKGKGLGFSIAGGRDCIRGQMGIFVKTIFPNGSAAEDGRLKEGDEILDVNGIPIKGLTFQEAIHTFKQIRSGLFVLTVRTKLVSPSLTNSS

In assay [26] the target is T17, GST-APXL-1 PDZ domain 1 (Homo sapiens (Human)), Q13796.
T17 chain: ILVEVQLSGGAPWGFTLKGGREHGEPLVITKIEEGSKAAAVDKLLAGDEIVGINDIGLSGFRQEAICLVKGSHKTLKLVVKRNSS

In assay [27] the target is T18, GST-LIM-RIL PDZ domain 1 (Homo sapiens (Human)), P50479.
T18 chain: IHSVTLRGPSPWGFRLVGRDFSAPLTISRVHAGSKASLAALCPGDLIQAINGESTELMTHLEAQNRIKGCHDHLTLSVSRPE

The target of assay [28] is T19, GST-PDZK1 PDZ domains 2, 3, 4, Q5T2W1.
T19 chain: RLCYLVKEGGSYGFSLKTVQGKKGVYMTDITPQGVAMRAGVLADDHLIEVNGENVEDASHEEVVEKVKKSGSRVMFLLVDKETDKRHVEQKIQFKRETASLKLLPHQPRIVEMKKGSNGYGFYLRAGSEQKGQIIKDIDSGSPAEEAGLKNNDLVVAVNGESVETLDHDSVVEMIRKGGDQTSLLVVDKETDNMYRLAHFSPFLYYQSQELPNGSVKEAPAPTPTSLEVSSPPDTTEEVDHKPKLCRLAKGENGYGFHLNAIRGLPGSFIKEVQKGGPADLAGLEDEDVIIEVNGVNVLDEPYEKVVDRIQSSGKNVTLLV

Assay [29] addresses GST-BAI-1 Associated Protein PDZ domain 4 (Homo sapiens (Human)), Q96QZ7.
Further: key of the grades not given here.

GST-KIAA1634 PDZ domain 1 (Homo sapiens (Human)), Q5TCQ9, sequence (Q5TCQ9 401-502): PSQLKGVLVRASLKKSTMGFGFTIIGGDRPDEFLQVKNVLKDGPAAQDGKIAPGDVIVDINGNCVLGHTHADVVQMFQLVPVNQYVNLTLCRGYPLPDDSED
GST-PSD95 PDZ domains 1, 2, 3 (Homo sapiens), P78352, sequence (P78352 62-395): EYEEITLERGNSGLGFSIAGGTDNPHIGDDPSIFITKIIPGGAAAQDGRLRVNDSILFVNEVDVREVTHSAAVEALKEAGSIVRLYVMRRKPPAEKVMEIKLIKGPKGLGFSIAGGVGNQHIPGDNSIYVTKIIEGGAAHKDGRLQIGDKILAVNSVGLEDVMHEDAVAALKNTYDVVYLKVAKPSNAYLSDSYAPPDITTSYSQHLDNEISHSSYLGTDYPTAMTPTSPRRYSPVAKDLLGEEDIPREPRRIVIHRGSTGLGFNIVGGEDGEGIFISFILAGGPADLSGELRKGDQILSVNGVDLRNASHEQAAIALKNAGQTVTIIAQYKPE
GST-KIAA807 [GST: P08515], sequence (P08515 whole entry, the tested form may be a part): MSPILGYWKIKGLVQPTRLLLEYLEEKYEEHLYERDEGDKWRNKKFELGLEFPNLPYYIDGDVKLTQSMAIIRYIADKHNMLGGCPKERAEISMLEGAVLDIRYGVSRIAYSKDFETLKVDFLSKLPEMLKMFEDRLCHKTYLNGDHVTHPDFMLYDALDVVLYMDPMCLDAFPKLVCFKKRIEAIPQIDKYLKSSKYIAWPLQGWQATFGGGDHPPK
GST-BAI-1 Associated Protein PDZ domain 5 (Homo sapiens (Human)), Q96QZ7, sequence (Q96QZ7 988-1099): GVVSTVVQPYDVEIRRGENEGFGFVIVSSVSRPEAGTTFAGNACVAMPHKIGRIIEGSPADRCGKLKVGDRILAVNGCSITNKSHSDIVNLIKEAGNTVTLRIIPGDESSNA
GST-BAI-1 Associated Protein PDZ domain 2 (Mus musculus (Mouse)), Q6RHR9, sequence (Q6RHR9 455-558): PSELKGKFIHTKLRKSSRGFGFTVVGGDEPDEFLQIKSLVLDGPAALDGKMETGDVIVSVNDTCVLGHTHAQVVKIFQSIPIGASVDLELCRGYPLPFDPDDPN
GST-BAI-1 Associated Protein PDZ domain 3 (Homo sapiens (Human)), Q96QZ7, sequence (Q96QZ7 other isoform, or with tags, fused parts or gaps): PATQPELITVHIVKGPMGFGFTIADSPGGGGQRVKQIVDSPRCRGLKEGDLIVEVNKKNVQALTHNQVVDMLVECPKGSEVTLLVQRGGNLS
GST-BAI-1 Associated Protein PDZ domain 4 (Homo sapiens (Human)), Q96QZ7, sequence (Q96QZ7 other isoform, or with tags, fused parts or gaps): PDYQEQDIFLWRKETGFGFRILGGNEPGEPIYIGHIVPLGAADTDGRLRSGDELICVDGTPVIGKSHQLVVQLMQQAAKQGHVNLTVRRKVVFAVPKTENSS
GST-BAI-1 Associated Protein PDZ domain 6 (Homo sapiens (Human)), Q96QZ7, sequence (Q96QZ7 1143-1233): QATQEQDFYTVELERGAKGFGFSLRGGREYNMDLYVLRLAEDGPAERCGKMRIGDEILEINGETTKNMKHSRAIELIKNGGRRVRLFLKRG
GST-KIAA0147 PDZ domain 1 (Homo sapiens (Human)), Q14160, sequence (Q14160 other isoform, or with tags, fused parts or gaps): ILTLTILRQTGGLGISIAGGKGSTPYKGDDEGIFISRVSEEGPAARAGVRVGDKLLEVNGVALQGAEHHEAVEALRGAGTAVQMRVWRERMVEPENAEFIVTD

In the case of SLKPGTVLPPPPYRHRNTVV (modifications not checked) [ErbB-4 receptor], the Classification in assay [1] turned out to be 1 A450 class; in [2] it was 1 A450 class; in assay [3], 1 A450 class; in [4] it was 1 A450 class; in assay [5], 2 A450 class; in [6], 1 A450 class. Besides, in assay [7], the Classification came out at 1 A450 class.
In the case of KKGTYLTDETHREVKFTSL (modifications not checked) [CD46], the Classification in [8] turned out to be 1 A450 class; in [9], 1 A450 class; in [10], 5 A450 class; in assay [11], 4 A450 class; in assay [12] it was 1 A450 class; in assay [13] it was 2 A450 class.
As to RNIEEVYVGGKQVVPFSSSV (modifications not checked) [Nedasin (s-form)], the Classification in [8] amounted to 1 A450 class; in assay [2], 3 A450 class; in assay [14] it was 1 A450 class; in assay [3], 2 A450 class; in [15], 1 A450 class; in assay [16] it was 1 A450 class. Besides, the Classification in assay [11] is 2 A450 class; in assay [4], 3 A450 class; in assay [17] it was 1 A450 class; in assay [18], 5 A450 class; in [19] it was 1 A450 class.
For the molecule ESSGTQSPKRHSGSYLVTSV (modifications not checked) [APC-adenomatous polyposis coli protein], the Classification in assay [9] stood at 1 A450 class; in assay [2] it was 5 A450 class; in assay [3] it was 4 A450 class; in assay [10], 1 A450 class; in [20], 1 A450 class; in assay [15], 1 A450 class. The Classification in [16] was 2 A450 class; in assay [11], 1 A450 class; in [4], 5 A450 class; in [21] it was 2 A450 class; in assay [22] it was 1 A450 class; in assay [17], 1 A450 class. The Classification in assay [18] was found to be 3 A450 class; in assay [23], 1 A450 class; in assay [24], 1 A450 class; in assay [7], 1 A450 class.
On to SSKSKSSEESQTFFGLYKL (modifications not checked) [Fas Ligand], for which the Classification in [8] is 4 A450 class; in assay [10], 5 A450 class; in assay [25] it was 2 A450 class; in [11], 5 A450 class; in assay [19], 3 A450 class; in [13], 2 A450 class. In addition, the Classification in assay [26] was 2 A450 class.
Regarding INSVGSTASSSQPLLVHDDV (modifications not checked) [c-kit receptor], the Classification in assay [16], in assay [23], in assay [12] and in assay [27] was 1 A450 class in each case.
Turning to GTSDMKDLVGNIEQNEHSVI (modifications not checked) [Mannose Receptor], the Classification in assay [10], in [20], in assay [11] and in assay [26] was 1 A450 class in each case.
Regarding EALQPEPGRKRIPLTRTTTF (modifications not checked) [somatostatin receptor 4], the Classification in assay [8], in assay [9], in assay [2], in assay [11], in assay [28] and in assay [29] was 1 A450 class each time.
In the case of PGQPPKVKSEFNSYSLTGYV (modifications not checked) [claudin 2], the Classification in [8] stood at 2 A450 class; in [11] it was 1 A450 class; in assay [17], 1 A450 class; in assay [6] it was 1 A450 class.
